Laboratory results: patent US20200317768A1 (published 2020)
Changes are numbered by the printed parent chain. One block for each binder: values may come before it.

Assays:
Assay in all cases: SPR (Biacore), antibody captured, FcgR analyte, 25 C
[1] = target: T1, cynomolgus monkey FcγRIIa1 extracellular domain, C-terminal His-tag (cynomolgus monkey)
T1 construct: also called cyno FcγRIIa1; cynoFcgRIIa1; not shown: His-tag added to C-terminus
T1 chain: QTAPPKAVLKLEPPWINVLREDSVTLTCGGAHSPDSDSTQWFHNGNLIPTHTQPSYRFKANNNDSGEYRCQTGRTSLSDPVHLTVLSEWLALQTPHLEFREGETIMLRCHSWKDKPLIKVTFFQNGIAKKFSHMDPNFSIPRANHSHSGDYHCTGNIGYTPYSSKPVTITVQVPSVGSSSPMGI

[2] = target: T2, cynomolgus monkey FcγRIIa2 extracellular domain, C-terminal His-tag (cynomolgus monkey)
T2 construct: also called cyno FcγRIIa2; cynoFcgRIIa2; not shown: His-tag added to C-terminus
T2 chain: T1 chain with P95T, T121A, I127K, A128S, K130N, D135N, R142Q

[3] = target: T3, cynomolgus monkey FcγRIIa3 extracellular domain, C-terminal His-tag (cynomolgus monkey)
T3 construct: also called cyno FcγRIIa3; cynoFcgRIIa3; not shown: His-tag added to C-terminus
T3 chain: T1 chain with P95T, T121A, A128S, H133P, D135N

[4] = target: T4, cynomolgus monkey FcγRIIb extracellular domain, C-terminal His-tag (cynomolgus monkey)
T4 construct: also called cyno FcγRIIb; cynoFcγRIIb; not shown: His-tag added to C-terminus
T4 chain: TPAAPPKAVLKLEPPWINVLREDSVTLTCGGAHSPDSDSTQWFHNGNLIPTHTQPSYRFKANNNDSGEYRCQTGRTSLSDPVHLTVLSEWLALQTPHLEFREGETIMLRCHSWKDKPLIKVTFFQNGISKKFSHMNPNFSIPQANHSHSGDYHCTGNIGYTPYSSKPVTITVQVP

[5] = target: T5, cynomolgus monkey FcγRIIIaS extracellular domain, C-terminal His-tag (cynomolgus monkey, UniProt A3RFZ7 21-206 (rhesus entry))
T5 construct: also called cyno FcγRIIIaS; cynoFcγRIIIaS; not shown: His-tag added to C-terminus

[6] = target: T6, human FcγRIIaH extracellular domain, C-terminal His-tag (human, UniProt P12318 34-217)
T6 construct: also called human FcγRIIa (type H); FcgRIIaH; not shown: His-tag added to C-terminus
T6 sequence: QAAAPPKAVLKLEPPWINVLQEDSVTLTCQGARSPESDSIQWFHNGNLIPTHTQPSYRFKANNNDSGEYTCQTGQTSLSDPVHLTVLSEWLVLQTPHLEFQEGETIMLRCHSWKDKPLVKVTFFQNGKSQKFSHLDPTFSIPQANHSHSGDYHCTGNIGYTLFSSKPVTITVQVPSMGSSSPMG

[7] = target: T7, human FcγRIIaR extracellular domain, C-terminal His-tag (human, UniProt P12318 34-217)
T7 construct: also called human FcγRIIa (type R); FcgRIIaR; not shown: His-tag added to C-terminus
T7 chain: T6 sequence with H134R

[8] = target: T8, human FcγRIIIaV extracellular domain, C-terminal His-tag (human, UniProt P08637 17-208)
T8 construct: also called FcgRIIIaV; not shown: His-tag added to C-terminus
T8 sequence (P08637 17-208 F176V): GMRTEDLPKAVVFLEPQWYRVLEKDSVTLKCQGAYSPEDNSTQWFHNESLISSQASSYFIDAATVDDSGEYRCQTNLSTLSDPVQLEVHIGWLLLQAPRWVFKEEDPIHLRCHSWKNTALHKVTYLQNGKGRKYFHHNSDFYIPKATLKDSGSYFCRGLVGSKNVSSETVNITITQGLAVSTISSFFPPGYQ

T5 sequence (A3RFZ7 21-206): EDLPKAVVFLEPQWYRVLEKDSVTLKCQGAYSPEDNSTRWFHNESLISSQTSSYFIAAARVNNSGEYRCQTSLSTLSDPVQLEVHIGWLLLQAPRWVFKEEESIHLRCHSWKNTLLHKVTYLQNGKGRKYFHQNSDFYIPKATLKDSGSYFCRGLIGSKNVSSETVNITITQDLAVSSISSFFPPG

- Kd [1]: 7900 nM
- Kd [2]: 7700 nM
- Kd [3]: 32000 nM
- Kd [4]: 2200 nM
- Kd [5]: 1500 nM
- Kd [6]: 1100 nM
- Kd [7]: 1300 nM
- Kd [8]: 8700 nM
B1: M103205H795-MY318/M103202L889-SK1 (antibody, human IgG1, kappa)
heavy: QVTLKESGPVLVKPTETLTLTCTVSGIDLSHDDISWVRQAPGKGLEWVGIISYAGSTYYASWAKGRLTISKDTSKNQVVLTMTNMDPVDTATYYCARGVPAYSHGGDLWGQGTLVTVSSASTKGPSVFPLAPSSKSTSGGTAALGCLVKDYFPEPVTVSWNSGALTSGVHTFPAVLQSSGLYSLSSVVTVPSSSLGTQTYICNVNHKPSNTKVDKKVEPKSCDKTHTCPPCPAPELLLGPSVFLFPPKPKDTLMISRTPEVTCVVVDVSEEDPEVKFNWYVDGVEVHNAKTKPREEQYNSTYRVVSVLTVLHQDWLNGKEYKCKVSNTALPKPIEKTISKAKGQPREPQVYTLPPSREEMTKNQVSLTCLVKGFYPSDIAVEWESNGQPENNYKTTPMVLDSDGSFFLYSKLTVDKSRWQQGNVFSCSVMHEALHNHYTQKSLSLSP
light: DIVMTQSPATLSLSPGERATLSCTSSQSVYHANWLSWFQQKPGQPPKLLIYWASTLAYGVPSRFSGSGSGTDFTLTISSLQPEDAATYYCAGGYGGGRYAFGQGTKVEIKRTVAAPSVFIFPPSDEQLKSGTASVVCLLNNFYPREAKVQWKVDNALQSGNSQESVTEQDSKDSTYSLSSTLTLSKADYEKHKVYACEVTHQGLSSPVTKSFNRGEC

- Kd [1]: 2300 nM
- Kd [2]: 2200 nM
- Kd [3]: 2900 nM
- Kd [4]: 540 nM
- Kd [5]: 11000 nM
- Kd [6]: 71 nM
- Kd [7]: 350 nM
- Kd [8]: 3400 nM
B2: M103205H795-MY321/M103202L889-SK1 (antibody, human IgG1, kappa)
heavy: B1 heavy with L238H, E270D, T328K
light: B1 light
